# Results taken from patent publication US11591580B2, “K85 mutation-containing plant EPSPS mutant, and encoding gene and application thereof” (GEVOTO LLC, priority 2017, dated 2023).
# B1: R0: wild-type rice EPSPS represented by SEQ ID NO: 2; control group of Example 5 (protein, listed as Oryza sativa)
# chain: MASNAAAAAAKAEEIVLQPIREISGAVQLPGSKSLSNRILLLSALSEGTTVVDNLLNSEDVHYMLEALKALGLSVEADKVAKRAVVVGCGGKFPVEKDAKEEVQLFLGNAGTAMRPLTAAVTAAGGNATYVLDGVPRMRERPIGDLVVGLKQLGADVDCFLGTECPPVRVKGIGGLPGGKVKLSGSISSQYLSALLMAAPLALGDVEIEIIDKLISIPYVEMTLRLMERFGVKAEHSDSWDRFYIKGGQKYKSPGNAYVEGDASSASYFLAGAAITGGTVTVQGCGTTSLQGDVKFAEVLEMMGAKVTWTDTSVTVTGPPREPYGKKHLKAVDVNMNKMPDVAMTLAVVALFADGPTAIRDVASWRVKETERMVAIRTELTKLGASVEEGPDYCIITPPEKLNITAIDTYDDHRMAMAFSLAACADVPVTIRDPGCTRKTFPNYFDVLSTFVRN
# B2: R1: rice EPSPS mutant I, SEQ ID NO: 4, containing one mutation K100(85)I (protein)
# chain: MASNAAAAAAKAEEIVLQPIREISGAVQLPGSKSLSNRILLLSALSEGTTVVDNLLNSEDVHYMLEALKALGLSVEADKVAKRAVVVGCGGKFPVEKDAIEEVQLFLGNAGTAMRPLTAAVTAAGGNATYVLDGVPRMRERPIGDLVVGLKQLGADVDCFLGTECPPVRVKGIGGLPGGKVKLSGSISSQYLSALLMAAPLALGDVEIEIIDKLISIPYVEMTLRLMERFGVKAEHSDSWDRFYIKGGQKYKSPGNAYVEGDASSASYFLAGAAITGGTVTVQGCGTTSLQGDVKFAEVLEMMGAKVTWTDTSVTVTGPPREPYGKKHLKAVDVNMNKMPDVAMTLAVVALFADGPTAIRDVASWRVKETERMVAIRTELTKLGASVEEGPDYCIITPPEKLNITAIDTYDDHRMAMAFSLAACADVPVTIRDPGCTRKTFPNYFDVLSTFVRN
# modifications: Oryza sativa EPSPS mutant with mutation K100(85)I
# Experiments:
# [1] = tested on: EPSPS defective E. coli (E. coli DH5α with EPSPS gene and C-P Lyase gene being knocked out, EDCE); experiment: growth of E. coli transformed by genes encoding rice EPSPS (wild type and mutants) in culture media containing different glyphosate concentrations (Example 5, FIG. 1); type: cell-based; settings: for EPSPS enzyme activity: concluded from growth of EPSPS defective E. coli at 0 mM glyphosate; for growth of transformed E. coli: culture media containing 1 mM glyphosate
# From the text: E. coli transformed by the gene (SEQ ID NO: 3) encoding the rice EPSPS mutant I provided in Example 1 was taken as Experiment Group 1 (only containing a mutation K100(85)I).
# E. coli transformed by the gene (with a nucleotide sequence represented by SEQ ID NO: 5, and an amino acid sequence of the encoded rice EPSPS mutant is represented by SEQ ID NO: 6) encoding the rice EPSPS mutant that contains only mutations G111(96)A and P116(101)S but no mutation K100(85)I was taken as Experiment Group 2.
# E. coli transformed by the gene (SEQ ID NO: 7) encoding the rice EPSPS mutant II provided in Example 2 was taken as Experiment Group 3 (the encoded rice EPSPS mutant II contained three mutations: K100(85)I, G111(96)A and P116(101)S).
# E. coli transformed by the gene (SEQ ID NO: 1, which encoded the wild-type rice EPSPS represented by SEQ ID NO: 2) encoding the wild-type rice EPSPS was taken as a control group.
# The glyphosate resistance of the gene encoding the rice EPSPS mutant I and the rice EPSPS mutant I encoded thereby in E. coli, and the glyphosate resistance of the gene encoding the rice EPSPS mutant II and the rice EPSPS mutant II encoded thereby in E. coli were verified by detecting the growth situation of the transformed E. coli in culture media (culture media obtained by adding a certain concentration of antibiotics Spec (Spectinomycin), Gen (Gentamycin), Amp (Ampicillin) and glyphosate of different concentrations, with M9 as a basal culture medium) containing different glyphosate concentrations (0 mM, 1 mM, 10 mM, and 50 mM).
# In the above, the E. coli used was double knockout E. coli, namely, EPSPS defective E. coli (E. coli DH5α with EPSPS gene and C-P Lyase gene being knocked out, named as EDCE, wherein for a preparation method thereof, reference can be made to a Chinese invention patent with the filing number CN2016103256926).
# The detection method is a method commonly known in the art, and is briefly described as follows: synthesizing the gene encoding the rice EPSPS mutant by using a chemical synthesis method, introducing enzyme sites (Pac1 and Sbf1) at two ends thereof, connecting to an expression vector (for example, a pADV5 vector, the structure of which is shown in FIG. 4) that had undergone the same restriction enzyme digestion treatment under the action of ligase after restriction enzyme digestion, then transforming double knockout E. coli, picking positive colonies after verification, inoculating the positive colonies to a culture medium containing glyphosate for growth, and observing the growth situation.
# Results are as shown in FIG. 1 (wherein R0 is a control group, R1 is Experiment Group 1, R2 is Experiment Group 2, and R3 is Experiment Group 3).
# [2] = tested on: transgenic rice seedlings; experiment: glyphosate resistance of the EPSPS mutant in transgenic rice plants sprayed with glyphosate (Example 8, Table 1); type: in vivo, rice (Nipponbare); settings: for glyphosate resistance of transformed rice seedlings (in words): glyphosate sprayed at the 1× dosage
# From the text: A method for detecting the glyphosate resistance of the G1 soybean EPSPS mutant (SEQ ID NO: 20), G2 soybean EPSPS mutant (SEQ ID NO: 22) and G3 soybean EPSPS mutant (SEQ ID NO: 24) provided in Example 7, the R1 rice EPSPS mutant (SEQ ID NO: 4) provided in Example 5, and the Z1 maize EPSPS mutant (SEQ ID NO: 12) provided in Example 6 in the transgenic rice is as follows:
# The plasmids (containing the EPSPS mutant gene) of the monoclonal resistant bacteria of pADV5-EPSPS in Examples 1-7 were extracted by a conventional method, followed by double enzyme digestion by Pac1 and BstEII, the small fragments were collected, and then the small fragments were ligated, using T4 DNA ligase, to the pGVP1 vectors that had undergone the same double enzyme digestion, to obtain a pGVP1-EPSPS vector having a structure as shown in FIG. 8.
# In the present example, the glyphosate resistance of the EPSPS mutant in transgenic rice plants were verified. An experiment method is as follows:
# The transgenic rice seedlings transplanted were uniformly arranged in a same experiment area (preventing leaves from overlapping). The areas occupied by the experiment groups and the control group were calculated, and according to the areas, glyphosate was sprayed at a 1× dosage of 1060 g/hectare (0.106 g/m^2). 2× dosage was 2120 g/hectare, 5× dosage was 5300 g/hectare, and 20× dosage was 21200 g/hectare.
# Commercially available Roundup® 41% ammonium glyphosate was used. Roundup® ammonium glyphosate with corresponding volumes was taken according to the above sprayed concentrations, then diluted with 20 times of volume of water, and then uniformly sprayed on the plants in the experiment groups and the control group. After leaf surfaces were dry, the plants were moved into greenhouse or outdoor to cultivate.
# After the glyphosate was sprayed at the 1× dosage, growth states of the plants in each group were observed and recorded on a 10th day, and glyphosate was sprayed to the survived plants at the 2× dosage. The growth states of the plants in each group were observed and recorded 10 days later, and glyphosate was sprayed to the survived plants at the 5× dosage. The growth states of the plants in each group were observed and recorded 10 days later, and glyphosate was sprayed to the survived plants at the 20× dosage. The growth states of the plants in each group were observed and recorded 10 days later, and results are shown in Table 1, wherein corresponding numbers of plants denoted by −, +, ++ and +++ are listed, and “%++&+++” is percentage of plant having medium and high glyphosate resistance to the total number of plants observed.
# [3] = 1X dosage (1060 g/hectare glyphosate), recorded on 10th day
# [4] = 2X dosage (2120 g/hectare) sprayed to plants surviving 1X, recorded 10 days later
# [5] = 5X dosage (5300 g/hectare) sprayed to plants surviving 2X, recorded 10 days later
# [6] = 20X dosage (21200 g/hectare) sprayed to plants surviving 5X, recorded 10 days later
Molecule,EPSPS enzyme activity [1],growth of transformed E. coli [1],"% ++&+++ (percentage of plant having medium and high glyphosate resistance to the total number of plants observed) [2, 3] [%]","number of plants with resistance + (low glyphosate resistance) [2, 3]","number of plants with resistance ++ (medium glyphosate resistance) [2, 3]","number of plants with resistance +++ (high glyphosate resistance) [2, 3]","number of plants with resistance − (no glyphosate resistance) [2, 3]","% ++&+++ (percentage of plant having medium and high glyphosate resistance to the total number of plants observed) [2, 4] [%]","number of plants with resistance + (low glyphosate resistance) [2, 4]","number of plants with resistance ++ (medium glyphosate resistance) [2, 4]","number of plants with resistance +++ (high glyphosate resistance) [2, 4]","number of plants with resistance − (no glyphosate resistance) [2, 4]","% ++&+++ (percentage of plant having medium and high glyphosate resistance to the total number of plants observed) [2, 5] [%]","number of plants with resistance + (low glyphosate resistance) [2, 5]","number of plants with resistance ++ (medium glyphosate resistance) [2, 5]","number of plants with resistance +++ (high glyphosate resistance) [2, 5]","number of plants with resistance − (no glyphosate resistance) [2, 5]","% ++&+++ (percentage of plant having medium and high glyphosate resistance to the total number of plants observed) [2, 6] [%]","number of plants with resistance + (low glyphosate resistance) [2, 6]","number of plants with resistance ++ (medium glyphosate resistance) [2, 6]",other results
B1,normal EPSPS enzyme activity,grew slowly,0.0,1,0,0,30,0.0,0,0,0,31,0.0,0,0,0,31,0.0,0,0,"number of plants with resistance +++ (high glyphosate resistance) [2, 6]: 0; number of plants with resistance − (no glyphosate resistance) [2, 6]: 31; glyphosate resistance of transformed rice seedlings (in words) [2]: had no resistance, one was seriously damaged, and all the others died"
B2,normal EPSPS enzyme activity,obviously grew better than the control group (R0),88.9,0,0,16,2,27.8,5,4,1,8,11.1,3,2,0,13,0.0,2,0,"number of plants with resistance +++ (high glyphosate resistance) [2, 6]: 0; number of plants with resistance − (no glyphosate resistance) [2, 6]: 16; glyphosate resistance of transformed rice seedlings (in words) [2]: obviously superior to that of the rice seedlings transformed by R0"
